One data set deals with food intake in rats. To be noted: IP, 0.5 μg/kg; cited from earlier work.
Data set [1] has as its system insulin-stimulated glycogen synthesis in soleus muscle. To be noted: cited from earlier work.
A further data set deals with food intake in mice. Put plainly: food intake in food-deprived mice after intraperitoneal injection. In kind it is in vivo. The protocol: Male NIH/Swiss Webster (Hsd:NIHS) mice, 8-10 weeks of age, were obtained from Harlan Sprague Dawley, Madison, Wis. Animals were exposed to 12:12 hour light-dark cycle, with lights off at 18:00, and with room temperature between 22° and 25° C. Water and food (Teklan 7002, Harlan Teklad, Madison, Wis.) were available ad libitum except as indicated below. Animals were adapted to the vivarium environment for at least one week before experiments were carried out.
Rat amylin (AC128) was synthesized by Fmoc solid phase synthesis. […] Peptides were dissolved in sterile water to obtain stock solutions of 1 mg/ml. Further dilutions were made with sterile saline just prior to intraperitoneal injections.
Animals were individually housed and deprived of food for 18-20 hours before experiments. Animals were allowed ad libitum access to water before and during the experiments. Immediately after intraperitoneal injection of rat amylin or CCK-8 or saline, all animals received a pre-weighed pellet of food. Food intake for each animal was measured by weighing the food pellet at 30 minutes following injection and providing food.

Data set [2] deals with amylin receptors (membrane-bound amylin receptors).
Data set [3] shares this target. Put plainly: receptor binding assay: competition with 125I Bolton Hunter rat amylin for membrane-bound amylin receptors.
Data set [4] in a line: solubility and stability characteristics compared to human amylin. Type of data set: physicochemical.

Ends that are not written are not given here.

Consider “amylin: amylin of unstated species in a literature report (KCNTATCATQRLANFLVHSSNNFGAILSSTNVGSNTY; Islet amyloid polypeptide; UniProt P10997 34-70, looked up)”, for which, in the data set with food intake in rats, the “effect on food intake” value was “significantly decreased food intake”.

As to “Chicken calcitonin: ultimobranchial calcitonin closely related to fish calcitonins (CASLSTCVLGKLSQELHKLQTYPRTDVGAGTP; ends and bridges not checked; cysteine pairing not given here)”, the EC50 in data set [1] is 700 pM.

In the case of `CSCC[C@H](NC(=O)[C@H](Cc1ccc(OS(=O)(=O)O)cc1)NC(=O)[C@@H](N)CC(=O)O)C(=O)NCC(=O)N[C@@H](Cc1c[nH]c2ccccc12)C(=O)N[C@@H](CCSC)C(=O)N[C@@H](CC(=O)O)C(=O)N[C@@H](Cc1ccccc1)C(N)=O` [CCK-8, Asp-Tyr(SO3 H)-Met-Gly-Trp-Met-Asp-Phe-NH2], the “effect on food intake” value in the data set on food intake in mice (IP injection of 1.0 μg/kg, peptide alone) was “no measurable effect”. Moreover, the suppressed food intake with food intake in mice (mice, intraperitoneal, 1.0 μg/kg of each peptide, at 30 minutes) came out at 10.6±16.9%.

The molecule “Human amylin (from UniProt P10997) (ligand)” came in with a Soleus Muscle (EC50, nM) in data set [2] of 1.6 nM. This molecule registered an IC50 in data set [3] of 50 pM.

Turning to “Eel calcitonin (from UniProt P01262) (ligand)”, the Soleus Muscle (EC50, nM) in data set [2] turned out to be 0.4 nM. In data set [3], this molecule came in with an IC50 of 90 pM.

In the case of “Salmon calcitonin (from UniProt P01263) (ligand)”, the Soleus Muscle (EC50, nM) in data set [2] was 0.4 nM. Further, the IC50 in data set [3] was 70 pM.

In data set [2], “1.7-Asn-eel Calcitonin (from UniProt P01262) (peptide)” gave a Soleus Muscle (EC50, nM) of 0.3 nM. In data set [3], this molecule yielded a concentration for half-maximal inhibition (IC50) of 50 pM.

In data set [2], “Chicken calcitonin (from UniProt P07660) (ligand)” returned a Soleus Muscle (EC50, nM) of 0.7 nM. In addition, the IC50 in data set [3] was 30 pM.

On to “Salmon calcitonin: calcitonin from fish (salmon), ultimobranchial calcitonin, amylin agonist”, for which the EC50 in data set [1] was 400 pM.

For `CC[C@H](C)[C@H](NC(=O)[C@@H]1CCCN1C(=O)CNC(=O)[C@H](Cc1ccccc1)NC(=O)[C@H](CC(N)=O)NC(=O)[C@H](CC(N)=O)NC(=O)[C@H](CO)NC(=O)[C@H](CO)NC(=O)[C@H](Cc1c[nH]cn1)NC(=O)[C@@H](NC(=O)[C@H](CC(C)C)NC(=O)[C@H](Cc1ccccc1)NC(=O)[C@H](CC(N)=O)NC(=O)[C@H](C)NC(=O)[C@H](CC(C)C)NC(=O)[C@H](CCCNC(=N)N)NC(=O)[C@H](CCC(N)=O)NC(=O)[C@@H](NC(=O)[C@H](C)NC(=O)[C@@H]1CSSC[C@H](NC(=O)[C@@H](N)CCCCN)C(=O)N[C@@H](CC(N)=O)C(=O)N[C@@H]([C@@H](C)O)C(=O)N[C@@H](C)C(=O)N[C@@H]([C@@H](C)O)C(=O)N1)[C@@H](C)O)C(C)C)C(=O)N[C@@H](CC(C)C)C(=O)N1CCC[C@H]1C(=O)N1CCC[C@H]1C(=O)N[C@H](C(=O)N[C@@H](CC(N)=O)C(=O)N[C@H](C(=O)NCC(=O)N[C@@H](CO)C(=O)N[C@@H](CC(N)=O)C(=O)N[C@H](C(=O)N[C@@H](Cc1ccc(O)cc1)C(N)=O)[C@@H](C)O)C(C)C)[C@@H](C)O` [^25,28,29 Pro-h-amylin], in data set [4], the solubility characteristics result was “more desirable” and the stability characteristics result was “more desirable”.

Regarding “Eel calcitonin: calcitonin from fish (eel), ultimobranchial calcitonin (CSNLSTCVLGKLSQELHKLQTYPRTDVGAGTP; ends and bridges not checked; cysteine pairing not given here)”, in data set [1], the EC50 is 400 pM.
